Measurements: patent US6870041B1, “MurE protein and gene of pseudomonas aeruginosa” (priority 1999, dated 2005)

Assays:
[1] = biological target: T1, P. aeruginosa MurE (Pseudomonas aeruginosa, UniProt Q59650); test: ATP-dependent MurE activity, pyruvate kinase/lactate dehydrogenase coupled enzyme assay (ADP formation); type: biochemical; conditions: recombinant MurE from P. aeruginosa; 25° C., pH 8.0; ADP formed per min per mg
T1 construct: 6xHis (pET-15b) (N); made in house; host or cells: E. coli BL21(DE3)/pLysS, plasmid pPaeMurE (pET-15b)
T1 sequence (Q59650 whole entry, looked up): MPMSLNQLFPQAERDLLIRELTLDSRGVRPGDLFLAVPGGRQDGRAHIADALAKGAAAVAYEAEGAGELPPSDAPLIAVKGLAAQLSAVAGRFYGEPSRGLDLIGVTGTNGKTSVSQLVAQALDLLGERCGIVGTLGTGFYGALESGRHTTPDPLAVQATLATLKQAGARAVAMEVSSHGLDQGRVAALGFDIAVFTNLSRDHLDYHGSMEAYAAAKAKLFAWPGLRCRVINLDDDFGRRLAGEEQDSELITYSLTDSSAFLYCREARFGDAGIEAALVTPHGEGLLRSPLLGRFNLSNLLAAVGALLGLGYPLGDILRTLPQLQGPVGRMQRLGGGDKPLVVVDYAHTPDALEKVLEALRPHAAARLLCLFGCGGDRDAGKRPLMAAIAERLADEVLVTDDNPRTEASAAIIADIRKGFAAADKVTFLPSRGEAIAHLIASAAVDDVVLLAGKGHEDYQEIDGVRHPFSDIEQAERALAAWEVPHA
Protocol: (§1) The ATP-dependent MurE activity was assayed by monitoring the formation of product ADP using the pyruvate kinase and lactate dehydrogenase coupled enzyme assay. The reaction was monitored spectrophotometrically.
(§2) Typically, the assay contained 100 mM BIS-TRIS-propane, pH 8.0, 200 μM NADH, 1 mM ATP, 20 mM PEP, 5 mM MgCl2, 1 mM DTT, 350 μM UDP-N-acetyl-muramyl-L-alanine-D-Glutamine, 1 mM m-Dap, 33 units/ml of pyruvate kinase and 1660 units/ml of lactate dehydrogenase in a final volume of 200 or 400 μl. The mixture was incubated at 25° C. for 5 min and the reaction initiated by the addition of 1-10 μg of MurE. These conditions are one example of an assay useful for evaluating the activity of MurE. Other assays can be used, or amounts of buffers, substrate and enzyme can be changed, as desired, to alter the rate of production of ADP.
(§3) ADP formation was monitored by the decrease in absorbance at 340 nm as a function of time using a MOLECULAR DEVICES SPECTRAMAXPLUS™ microtiterplate spectrophotomer (for 200 μl assays) or a HEWLETT-PACKARD HP8452A spectrophotometer equipped with a circulating water bath (for 400 μl assays). Rates were calculated from the linear portions of the progress curves using the extinction coefficient for NADH, e=6220 cm^−1 M-1. One unit of MurE activity is equal to 1 μmol of ADP formed per min at 25° C.

[2] = biological target: T2, E. coli MurE (Escherichia coli, UniProt P22188); test: as above; type: biochemical; conditions: recombinant MurE from E. coli; 25° C., pH 8.0; ADP formed per min per mg
T2 sequence (P22188 whole entry, looked up): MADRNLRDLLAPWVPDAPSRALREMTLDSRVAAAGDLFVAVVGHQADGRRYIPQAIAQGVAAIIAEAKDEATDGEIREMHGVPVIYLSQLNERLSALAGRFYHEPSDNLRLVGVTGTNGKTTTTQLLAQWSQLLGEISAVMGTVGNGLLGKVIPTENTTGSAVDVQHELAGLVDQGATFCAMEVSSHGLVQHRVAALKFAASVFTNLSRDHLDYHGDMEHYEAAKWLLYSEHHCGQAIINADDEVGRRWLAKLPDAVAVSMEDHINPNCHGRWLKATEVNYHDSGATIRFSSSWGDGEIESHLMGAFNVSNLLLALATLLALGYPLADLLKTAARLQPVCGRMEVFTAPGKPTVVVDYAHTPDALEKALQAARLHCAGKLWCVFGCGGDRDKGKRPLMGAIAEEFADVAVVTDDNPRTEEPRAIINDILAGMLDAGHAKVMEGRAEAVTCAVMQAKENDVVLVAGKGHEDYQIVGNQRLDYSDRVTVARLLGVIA
Protocol: as §1, §2, §3

B1: UDP-N-acetylmuramoyl-L-alanyl-D-glutamate:meso-2,6-diaminopimelate ligase (protein, listed as Pseudomonas aeruginosa)
chain: MPMSLSQLFPQAERDLLIRELTLDSHGVRPVDLFLTVPGGHQDGRAHIADALTKGATAVAYEAEGAGELPPSDAPLIAVKGLAAQLSAVAGRFYGEPSRGLDLIGVTGTNGKTSVSQLVAQALDLLGERCGIVGTLGTGFYGALESGRHTTPDPLAVQATLATLKQAGARAVAMEVSSHGLDQGRVAALGFDIAVFTNLSRDHLDYHGSMEAYAAAKAKLFAWPDLRCRVINLDDDFGRRLAGEEQDSELITYSLTDSSAFLYCREARFGDAGIEAALVTPHGEGLLRSPLLGRFNLSNLLAAVGALLGLGYPLGDILRTLPQLQGPVGRMQRLGGGGKPLVVVDYAHTPDALEKVLEALRPHAAARLLCLFGCGGDRDAGKRPLMAAIAERLADEVLVTDDNPRTEASAAIIADIRKGFAAADKVTFLPSRGEAIAHLIASAAVDDVVLLAGKGHEDYQEIDGVRHPFSDIEQAERALAAWEVPHA
modifications: His tag
[1]
  Specific activities of recombinant MurE, P. aeruginosa: 3.31 µmol/min/mg
[2]
  Specific activities of recombinant MurE, E. coli: 0.68 µmol/min/mg
